In one assay the test system is OMP-C8 colon tumor. Kind of assay: OMP-C8 colon tumor recurrence model. It is filed as in vivo, NOD/SCID mice. As to conditions: 21M18, bevacizumab 7.5 mg/kg, bispecifics 15 mg/kg weekly ip; irinotecan 45 mg/kg for first four weeks. The method, then:
FIG. 9. Inhibition of colon tumor growth by anti-VEGF/anti-DLL4 bispecific antibodies in tumor recurrence model. OMP-C8 colon tumor cells were injected subcutaneously in NOD/SCID mice. Mice were treated with control antibody (-▪-), anti-hDLL4 antibody 21M18 (-●-), anti-VEGF antibody bevacizumab (-▴-), a combination of 21M18 and bevacizumab (-▾-), anti-VEGF/anti-DLL4 bispecific antibody 219R45-MB-21M18 (-⋄-), or anti-VEGF/anti-DLL4 bispecific antibody 219R45-MB-21R79 (-∘-), all in combination with irinotecan. Antibodies 21M18 and bevacizumab were administered intraperitoneally at a dose of 7.5 mg/kg once a week, bispecific antibodies 219R45-MB-21M18 and 219R45-MB-21R79 were administered intraperitoneally at a dose of 15 mg/kg once a week, and irinotecan was administered for the first 4 weeks at a dose of 45 mg/kg. Data are shown as tumor volume (mm^3) over days post-treatment.
Single cell suspensions of OMP-C8 colon tumor xenografts (20,000 cells) were injected subcutaneously into the flanks of 6-8 week old NOD/SCID mice. […] Tumor growth was monitored and tumor volumes were measured with electronic calipers at the indicated time points. Data are expressed as mean±S.E.M.

Another assay concerns OMP-C8 colon tumor cells. Kind of assay: Tumor growth in human skin graft model. It is filed as in vivo, NOD-SCID mice. As to conditions: 25 mg/kg intraperitoneally once a week. As to the method:
FIG. 5. Inhibition of colon tumor growth in vivo by an anti-VEGF/anti-DLL4 bispecific antibody. OMP-C8 colon tumor cells were injected subcutaneously into a human skin graft in NOD/SCID mice. Mice were treated with control antibody (-▪-), anti-hDLL4 antibody 21M18 (-▴-), anti-VEGF antibody bevacizumab (-∘-), or anti-VEGF/anti-DLL4 bispecific antibody 219R45-MB-21M18 (-▾-). Data is shown as tumor volume (photons/sec) over days post-treatment. Antibodies were administered intraperitoneally at a dose of 25 mg/kg once a week.
A human skin graft model has been reported which comprises a human skin graft and human tumor cells. A human skin graft is established and then human tumor cells are implanted into the skin graft, allowing the tumor cells to grow in an environment with human stroma and vasculature (Tahtis et al., 2003, Mol. Cancer Ther. 2:[…]). Human skin samples were obtained from neonatal foreskin tissue and grafted onto the lateral flank of NOD-SCID mice. After establishment of the skin graft, luciferase-labeled OMP-C8 colon tumor cells (20,000 cells) were injected intradermally into the human skin. Tumor growth was monitored by bioluminescence imaging using an IVIS imaging system (Caliper Life Sciences, Mountain View, Calif.). Tumors were allowed to grow until they reached 1.2×10^6 photons per second. Tumor-bearing mice (n=6 mice/group) were randomized and treated with control Ab, anti-hDLL4 antibody 21M18, anti-VEGF antibody bevacizumab, or anti-VEGF/anti-DLL4 bispecific antibody 219R45-MB-21M18. Animals were treated once a week and antibodies were administered intraperitoneally at a dose of 25 mg/kg. Tumor growth was monitored by bioluminescence imaging on the indicated days.

Assay [1] relates to VEGF-induced proliferation of HUVEC cells. As to the kind of experiment: HUVEC proliferation assay. It is filed as cell-based, human. Conditions: hVEGF 5 ng/ml, Alamar Blue on day 7. As to the method: FIG. 3. Inhibition of VEGF-induced HUVEC proliferation by anti-VEGF/anti-DLL4 bispecific antibodies. Fluorescence intensity is read using an excitation wavelength of 530 nm and an emission wavelength of 590. 219R45-MB-21M18 (-●-); 219R45-MB-21R79 (-▴-); 219R45 (-▪-); Medium with no VEGF (-⋄-).
HUVEC cells were obtained from Lonza (Walkersville, Md.) and cultured in growth media (M199, 10% heat-inactivated FBS (HI-FBS), 50 μg/ml EGS, 1X heparin, 1 mM L-glutamine). For the HUVEC proliferation assay, a 96-well plate was pre-coated with 50 μl of 10 μg/ml rat tail collagen type I solution (collagen I in 0.02N acetic acid) and incubated at 4° C. overnight. After incubation, the plate was thoroughly aspirated to remove unbound collagen I solution and washed once with 200 μl DPBS. The HUVEC cells were removed from the surface of the growth flasks using an endothelial cell subclone reagent and centrifuged at 1200 rpm for 5 minutes at 4° C. The cells were resuspended in starvation/assay medium (M199 and 2% HI-FBS, 1× heparin, 5 U/ml heparin-glutamine) at a density of 10^5 cells/ml. The cells were seeded into the collagen-coated assay plate at 5000 cells/well, 50 ul/well. The cells were incubated for 3 hours at 37° C., washed one time, refed with 100 ul assay media, and incubated overnight at 37° C. The next day, bispecific antibodies 219R45-MB-21M18, 219R45-MB-21R79, parental antibody 219R45, or control antibody LZ1 were prepared in a mixture with human VEGF (R&D Biosystems, Minneapolis, Minn.). The antibodies were serially diluted 5-fold from […] to 0.25 nM in assay buffer in combination with hVEGF (final concentration 5 ng/ml). The mixture was pre-incubated at 37° C. for 2 hours. The medium was removed from the assay plate, and 100 μl of the antibody/hVEGF mixture was added to each well. […] The plate was read with a SpectraMax M5e Microplate reader (Molecular Devices, Sunnyvale CA) using a excitation wavelength of […] and an emission wavelength of 590 nm.
On the technique in general: Resazurin is reduced to fluorescent resorufin, in cell work by metabolically active cells.

Consider three molecules from patent publication US11512128B2, “VEGF/DLL4 binding agents and uses thereof” (MEREO BIOPHARMA 5, INC., priority 2011, dated 2022).

B1: 21M18: anti-DLL4 antibody, parental antibody (Hoey et al., 2009; U.S. Pat. No. 7,750,124) (antibody, V domains shown)
VH: QVQLVQSGAEVKKPGASVKISCKASGYSFTAYYIHWVKQAPGQGLEWIGYISSYNGATNYNQKFKGRVTFTTDTSTSTAYMELRSLRSDDTAVYYCARDYDYDVGMDYWGQGTLVTVSS
VL: DIVMTQSPDSLAVSLGERATISCRASESVDNYGISFMKWFQQKPGQPPKLLIYAASNQGSGVPDRFSGSGSGTDFTLTISSLQAEDVAVYYCQQSKEVPWTFGGGTKVEIK
Turning to B1, the “inhibition of tumor regrowth after irinotecan was stopped” value in the assay on OMP-C8 colon tumor is reported as “continued to inhibit tumor growth after treatment with irinotecan was stopped”. For the same molecule, the “inhibition of tumor growth (bioluminescence)” value with OMP-C8 colon tumor cells is listed as “inhibited tumor growth”.

B2: 219R45-MB-21R79: anti-VEGF/anti-DLL4 monovalent/bispecific antibody, heavy chains SEQ ID NO:7 and 6, light chains SEQ ID NO:8 (antibody)
heavy 1: QVQLVQSGAEVKKPGASVKVSCKASGYTFTNYWMHWVRQAPGQGLEWMGDINPSNGRTSYKEKFKRRVTLSVDKSSSTAYMELSSLRSEDTAVYFCTIHYDDKYYPLMDYWGQGTLVTVSSASTKGPSVFPLAPCSRSTSESTAALGCLVKDYFPEPVTVSWNSGALTSGVHTFPAVLQSSGLYSLSSVVTVPSSNFGTQTYTCNVDHKPSNTKVDKTVERKCCVECPPCPAPPVAGPSVFLFPPKPKDTLMISRTPEVTCVVVDVSHEDPEVQFNWYVDGVEVHNAKTKPREEQFNSTFRVVSVLTVVHQDWLNGKEYKCKVSNKGLPAPIEKTISKTKGQPREPQVYTLPPSREKMTKNQVSLTCLVKGFYPSDIAVEWESNGQPENNYKTTPPMLKSDGSFFLYSKLTVDKSRWQQGNVFSCSVMHEALHNHYTQKSLSLSPGK
heavy 2: QVQLVQSGAEVKKPGASVKISCKASGYSFTAYYIHWVKQAPGQGLEWIGYIANYNRATNYNQKFKGRVTFTTDTSTSTAYMELRSLRSDDTAVYYCARDYDYDVGMDYWGQGTLVTVSSASTKGPSVFPLAPCSRSTSESTAALGCLVKDYFPEPVTVSWNSGALTSGVHTFPAVLQSSGLYSLSSVVTVPSSNFGTQTYTCNVDHKPSNTKVDKTVERKCCVECPPCPAPPVAGPSVFLFPPKPKDTLMISRTPEVTCVVVDVSHEDPEVQFNWYVDGVEVHNAKTKPREEQFNSTFRVVSVLTVVHQDWLNGKEYKCKVSNKGLPAPIEKTISKTKGQPREPQVYTLPPSREEMTKNQVSLTCLVEGFYPSDIAVEWESNGQPENNYKTTPPMLDSDGSFFLYSELTVDKSRWQQGNVFSCSVMHEALHNHYTQKSLSLSPGK
light: DIVMTQSPDSLAVSLGERATISCRASESVDNYGISFMKWFQQKPGQPPKLLIYAASNQGSGVPDRFSGSGSGTDFTLTISSLQAEDVAVYYCQQSKEVPWTFGGGTKVEIKRTVAAPSVIFPPSDEQLKSGTASVVCLLNNFYPREAKVQWKVDNALQSGNSQESVTEQDSKDSTYSLSSTLTLSKADYEKHKVYACEVTHQGLSSPVTKSFNRGEC
modifications: 21R79 Heavy chain without predicted signal sequence; Light chain without predicted signal sequence
For the molecule B2, in assay [1], the “inhibition of VEGF-induced HUVEC proliferation” value is listed as “inhibited HUVEC proliferation”.

B3: 219R45-MB-21M18: anti-VEGF/anti-DLL4 monovalent/bispecific antibody, heavy chains SEQ ID NO:7 and 5, light chains SEQ ID NO:8 (antibody)
heavy 1: QVQLVQSGAEVKKPGASVKVSCKASGYTFTNYWMHWVRQAPGQGLEWMGDINPSNGRTSYKEKFKRRVTLSVDKSSSTAYMELSSLRSEDTAVYFCTIHYDDKYYPLMDYWGQGTLVTVSSASTKGPSVFPLAPCSRSTSESTAALGCLVKDYFPEPVTVSWNSGALTSGVHTFPAVLQSSGLYSLSSVVTVPSSNFGTQTYTCNVDHKPSNTKVDKTVERKCCVECPPCPAPPVAGPSVFLFPPKPKDTLMISRTPEVTCVVVDVSHEDPEVQFNWYVDGVEVHNAKTKPREEQFNSTFRVVSVLTVVHQDWLNGKEYKCKVSNKGLPAPIEKTISKTKGQPREPQVYTLPPSREKMTKNQVSLTCLVKGFYPSDIAVEWESNGQPENNYKTTPPMLKSDGSFFLYSKLTVDKSRWQQGNVFSCSVMHEALHNHYTQKSLSLSPGK
heavy 2: QVQLVQSGAEVKKPGASVKISCKASGYSFTAYYIHWVKQAPGQGLEWIGYISSYNGATNYNQKFKGRVTFTTDTSTSTAYMELRSLRSDDTAVYYCARDYDYDVGMDYWGQGTLVTVSSASTKGPSVFPLAPCSRSTSESTAALGCLVKDYFPEPVTVSWNSGALTSGVHTFPAVLQSSGLYSLSSVVTVPSSNFGTQTYTCNVDHKPSNTKVDKTVERKCCVECPPCPAPPVAGPSVFLFPPKPKDTLMISRTPEVTCVVVDVSHEDPEVQFNWYVDGVEVHNAKTKPREEQFNSTFRVVSVLTVVHQDWLNGKEYKCKVSNKGLPAPIEKTISKTKGQPREPQVYTLPPSREEMTKNQVSLTCLVEGFYPSDIAVEWESNGQPENNYKTTPPMLDSDGSFFLYSELTVDKSRWQQGNVFSCSVMHEALHNHYTQKSLSLSPGK
light: DIVMTQSPDSLAVSLGERATISCRASESVDNYGISFMKWFQQKPGQPPKLLIYAASNQGSGVPDRFSGSGSGTDFTLTISSLQAEDVAVYYCQQSKEVPWTFGGGTKVEIKRTVAAPSVIFPPSDEQLKSGTASVVCLLNNFYPREAKVQWKVDNALQSGNSQESVTEQDSKDSTYSLSSTLTLSKADYEKHKVYACEVTHQGLSSPVTKSFNRGEC
modifications: 21R79 Heavy chain without predicted signal sequence; 21M18 Heavy chain without predicted signal sequence; Light chain without predicted signal sequence
On to B3, for which the “inhibition of tumor regrowth after irinotecan was stopped” value with OMP-C8 colon tumor is reported as “more effective at inhibiting tumor regrowth than the mixture of the two antibodies”. Further, in the assay on OMP-C8 colon tumor cells, the “inhibition of tumor growth (bioluminescence)” value was “more effective than either the anti-DLL4 antibody or the anti-VEGF antibody alone”. The “inhibition of VEGF-induced HUVEC proliferation” value in assay [1] is reported as “inhibited HUVEC proliferation”.
